Reference: patent US20190343963A1 (published 2019)
Substitutions are numbered along the chain they refer to. In names and notes the source's numbering stands.

B1: 111 7g11 Alb22 (protein)
chain: TYNGCSSSEQSALAAAASAAQSYVAESLSYLQTHTAATPRYTTWFGSYISSRHSTVLQHYTDMNSNDFSSYSFDCTCTAAGTFAYVYPNRFGTVYLCGAFWQAPTTGTDSQAGTLVHESSHFTRNGGTDDYAYGQAAAQSLATMNPDQAVMNADNHEYFSENNPAQSAAAGGGGSGDLGRRLLEAARAGQDDEVRILMANGADVNAADYFSHTPLHLAARNGHLEIVEVLLQAGADVNASDFAGKTPLHLAANDGHLEIVEVLLQHGADVNAQDIFGRTPADIAADAGHEDIAEVLQRLNGGGGSGGGGSGGGGSGGGGSGGGGSGGGGSGGGSSGLDRRLLEAARAGQDDEVRILMANGADVNATDEFDSTPLHLAARHGHLEIVEVLLQYGADVNAADFIGDTPLHLAAYRGHLEIVEVLLQYGVDVNADDHGDTPLHLAASTGHLEIVEVLLQHGADVNAQDIFGRTAFDISIDNGNEDLAEILQRAA
B2: 111 7g11 Alb22 NQ (protein)
chain: ATYNGCSSSEQSALAAAASAAQSYVAESLSYLQTHTAATPRYTTWFGSYISSRHSTVLQHYTDMNSNDFSSYSFDCTCTAAGTFAYVYPNRFGTVYLCGAFWQAPTTGTDSQAGTLVHESSHFTRNGGTDDYAYGQAAAQSLATMNPDQAVMNANNHQYFSENNPAQSAAAGGGGSGDLGRRLLEAARAGQDDEVRILMANGADVNAADYFSHTPLHLAARNGHLEIVEVLLQAGADVNASDFAGKTPLHLAANDGHLEIVEVLLQHGADVNAQDIFGRTPADIAADAGHEDIAEVLQRLNGGGGSGGGGSGGGGSGGGGSGGGGSGGGGSGGGSSGLDRRLLEAARAGQDDEVRILMANGADVNATDEFDSTPLHLAARHGHLEIVEVLLQYGADVNAADFIGDTPLHLAAYRGHLEIVEVLLQYGVDVNADDHGDTPLHLAASTGHLEIVEVLLQHGADVNAQDIFGRTAFDISIDNGNEDLAEILQRAA
B3: IL-13 DARPin ΔK (protein)
chain: ALDRRLLEAARAGQDDEVRILMANGADVNARDSYGSTPLHLAAREGHLEIVEVLLQYGADVNAADFIGDTPLHLAAYRGHLEIVEVLLQYGADVNASDITGETPLHLAAQIGHLEIVEVLLQHGADVNAQDIFGRTAFDISIDNGNEDLAEILQRAA
B4: SH111 D154N ΔK (protein)
chain: SSYSFDCTCTAAGTFAYVYPNRFGTVYLCGAFWQAPTTGTDSQAGTLVHESSHFTRNGGTDDYAYGQAAAQSLATMNPDQAVMNANNHEYFSENNPAQSAAAGGGGSGDLGRRLLEAARAGQDDEVRILMANGADVNAADYFSHTPLHLAARNGHLEIVEVLLQYGADVNASDFAGRTPLHLAANDGHLEIVEVLLQHGADVNAQDIFGRTPADIAADNGHEDIAEVLQRAAGGGGSGGGGSGGGGSGGGGSGGGGSGGGGSGGGSSALDRRLLEAARAGQDDEVRILMANGADVNARDSYGSTPLHLAAREGHLEIVEVLLQYGADVNAADFIGDTPLHLAAYRGHLEIVEVLLQYGADVNASDITGETPLHLAAQIGHLEIVEVLLQHGADVNAQDIFGRTAFDISIDNGNEDLAEILQRAA
B5: SH111 wt ΔK (protein)
chain: TYNGCSSSEQSALAAAASAAQSYVAESLSYLQTHTAATPRYTTWFGSYISSRHSTVLQHYTDMNSNDFSSYSFDCTCTAAGTFAYVYPNRFGTVYLCGAFWQAPTTGTDSQAGTLVHESSHFTRNGGTDDYAYGQAAAQSLATMNPDQAVMNADNHEYFSENNPAQSAAAGGGGSGDLGRRLLEAARAGQDDEVRILMANGADVNAADYFSHTPLHLAARNGHLEIVEVLLQYGADVNASDFAGRTPLHLAANDGHLEIVEVLLQHGADVNAQDIFGRTPADIAADNGHEDIAEVLQRAAGGGGSGGGGSGGGGSGGGGSGGGGSGGGGSGGGSSALDRRLLEAARAGQDDEVRILMANGADVNARDSYGSTPLHLAAREGHLEIVEVLLQYGADVNAADFIGDTPLHLAAYRGHLEIVEVLLQYGADVNASDITGETPLHLAAQIGHLEIVEVLLQHGADVNAQDIFGRTAFDISIDNGNEDLAEILQRAA
B6: SH111 NQ ΔK (protein)
chain: B5 chain with D154N, E157Q
B7: SH111 E157Q ΔK (protein)
chain: B5 chain with E157Q

What follows are binders tested against T1, FLAG-tagged human IL-13 (human, UniProt P35225 35-146) (assay: competition ELISA; 1 h incubation).
T1 sequence (P35225 35-146): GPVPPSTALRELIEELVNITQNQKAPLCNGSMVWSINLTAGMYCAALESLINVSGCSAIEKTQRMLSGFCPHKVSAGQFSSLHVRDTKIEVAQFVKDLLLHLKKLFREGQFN

| Binder | EC50 [nM] |
| --- | --- |
| B1 | 0.019 |
| B2 | 0.075 |

What follows are binders tested against T1, FLAG-tagged human IL-13 (assay: competition ELISA; 24 h incubation).

| Binder | EC50 [nM] |
| --- | --- |
| B1 | 0.0036 |
| B2 | 0.0069 |

Target: T1, FLAG-tagged human IL-13
Assay: competition ELISA; 1 h incubation
Remark: another data set of the same source

| Binder | EC50 [nM] |
| --- | --- |
| B3 | 13.7 |
| B4 | 0.802 |
| B5 | 0.065 |
| B6 | 0.705 |
| B7 | 0.08 |

Target: T1, FLAG-tagged human IL-13
Assay: competition ELISA; 24 h incubation
Remark: another data set of the same source

| Binder | EC50 [nM] |
| --- | --- |
| B3 | 21.2 |
| B4 | 0.015 |
| B5 | 0.002 |
| B6 | 0.027 |
| B7 | 0.003 |
